{
  "source": "patent US20150125450A1",
  "about": "(published 2015)",
  "binders": {"B1": {"name": "4C9 mouse anti-human TNF-α monoclonal antibody (antibody, mouse IgG1, V domains shown)", "VH": "VQLQESGPSLVKPSQTLSLTCSVTGDSITSGFWNWIRKFPGNKFEYMGYISYSGRTYYNPSLKSRLSITRDTSKNQFYLQLNSVTAEDTATYYCARDANYVLDYWGQGTTLTVSS", "VL": "DIQLTQSPSSLAMSVGQKVTMNCKSSQSLLNSSTQKNYLAWFQQKPGQSPKLLVYFASARESGVPDRFIGSGSGTDFTLTISSVQAEDLADYFCQQHYRTPFTFGSGTKLEIKR", "notes": "Murine IgG1/kappa; 4C9D11 and 4C9D11G11 are subclones of 4C9; also called 4C9D11; 4C9D11G11"}, "B2": {"name": "chimeric 4C9 antibody (chimeric anti-TNF-α clone 6A9) (antibody, V domains shown)", "VH": "B1 VH", "VL": "B1 VL", "notes": "also called cIgG-anti-TNF-α"}, "B3": {"name": "2-3B2 mouse monoclonal antibody against human IL-6 (antibody, V domains shown)", "VH": "VKLQESGGGLVQPGGSRKLSCAASGFTFSRFGMHWVRQAPEKGLEWVAYIGRGSSTIYYADTVKGRFTISRDNPKNTLFLQMTSLRSEDTAMYYCARSNWDGAMDYWGQGTSVTVSS", "VL": "DIQLTQSPASLSASVGETVTITCRASGNIHNFLAWYQQKQGKSPQLLVYNAETLADGVPSRFSGSGSGTQYSLKINSLQPEDFGSYYCQHFWSTPWTFGGGTKLEIKR", "notes": "Murine IgG1/kappa hybridoma antibody; also called 2-3B2 anti-IL-6 antibody"}},
  "key": {"human TNF-α": {"molecular_target": "human TNF-α (human, UniProt P01375 77-233)", "sequence (P01375 77-233 limits assumed)": "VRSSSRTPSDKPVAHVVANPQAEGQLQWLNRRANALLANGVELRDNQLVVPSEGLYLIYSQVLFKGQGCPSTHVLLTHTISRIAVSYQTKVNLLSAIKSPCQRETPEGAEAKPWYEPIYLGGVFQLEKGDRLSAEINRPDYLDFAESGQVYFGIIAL", "assay": "cell-based or functional assay"}, "human TNF-β": {"molecular_target": "T1, human TNF-β (human, UniProt P01374 35-205, limits assumed)", "T1 sequence (looked up)": "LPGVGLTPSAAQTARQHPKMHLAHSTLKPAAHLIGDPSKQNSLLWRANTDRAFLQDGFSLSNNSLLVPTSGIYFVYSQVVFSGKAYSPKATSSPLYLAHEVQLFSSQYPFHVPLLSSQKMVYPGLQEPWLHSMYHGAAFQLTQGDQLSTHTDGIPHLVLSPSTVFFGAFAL", "assay": "Western blotting, reducing conditions"}, "murine TNF-α": {"molecular_target": "T2, murine TNF-α (murine, UniProt P06804 80-235)", "T2 sequence (looked up)": "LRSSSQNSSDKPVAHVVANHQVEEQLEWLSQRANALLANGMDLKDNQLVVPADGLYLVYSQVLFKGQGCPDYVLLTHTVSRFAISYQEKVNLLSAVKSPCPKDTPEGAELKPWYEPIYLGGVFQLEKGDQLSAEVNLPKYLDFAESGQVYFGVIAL", "assay": "Western blotting, reducing conditions"}, "Cynomolgus monkey TNF-α": {"molecular_target": "Cynomolgus monkey TNF-α (Cynomolgus monkey, UniProt P79337 77-233)", "sequence (P79337 77-233 limits assumed)": "as the sequence (P01375 77-233 limits assumed) above, with L37V, R44T, T72N, R138L counted along it", "assay": "ELISA"}, "murine IL-6": {"molecular_target": "T3, murine IL-6 (murine, UniProt P08505 25-211)", "T3 sequence (looked up)": "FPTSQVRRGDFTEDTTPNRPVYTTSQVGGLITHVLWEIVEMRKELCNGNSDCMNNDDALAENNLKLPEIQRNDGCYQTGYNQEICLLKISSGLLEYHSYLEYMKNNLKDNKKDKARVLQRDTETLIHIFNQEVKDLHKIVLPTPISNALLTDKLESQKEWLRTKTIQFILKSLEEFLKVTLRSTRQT", "assay": "Western blotting"}, "human IL-6": {"molecular_target": "human IL-6 (human, UniProt P05231 30-212)", "assay": "cell-based or functional assay"}},
  "data": [
    {"binder": "B1", "values": [
      {"measurement": "EC50, inhibition of TNF-α-induced cytotoxicity, L929 cells, MTS", "setting": "human TNF-α", "result": 0.0112, "unit": "µg/mL"},
      {"measurement": "binding result", "setting": "human TNF-β", "result": "no binding"},
      {"measurement": "binding result", "setting": "murine TNF-α", "result": "no binding"}
    ]},
    {"binder": "B2", "values": [
      {"measurement": "binding result", "setting": "Cynomolgus monkey TNF-α", "result": "binds"}
    ]},
    {"binder": "B3", "values": [
      {"measurement": "binding result", "setting": "murine IL-6", "result": "no binding"},
      {"measurement": "potency for inhibiting IL-6 induced phosphorylation of STAT3, relative to 4-4E6", "setting": "human IL-6", "result": "~100", "unit": "fold"}
    ]}
  ]
}
